B1: RSPH3 (parent)
chain: VDVQTELYLEEIADRIIEVDMECQ

Variants of: B1
Experiment: protein stability index of a GFP-peptide fusion (GPS, HEK-293T) (PSI 1-6); higher = more stable
Details: c terminus: a fixed tail appended
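Also: lentivirally expressed fusions sorted by FACS into six bins by GFP to DsRed ratio, PSI derived from sequencing read proportions per bin multiplied by bin number.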

Protein stability index: each site, then its substitutions
Y8: A 4.03, W 2.51, G 4.65, P 3.77, H 3.85, V 2.85, C 3.04, T 3.5, N 4, E 4.48, R 3.11, D 4.25
E18: Q 1.57, R 2.51, T 2.23, V 2.85, F 2.26, G 2.86, I 2.01, M 1.94, H 2.31, W 2.23, N 2.7, C 2.48, K 2.59, P 2.79, Y 2.03, A 2.22, D 3.12, S 2.44
E6: P 3.41, V 2.24, K 2.44, Q 2.14, W 2.21, T 1.83, R 2.52, L 1.65, N 2.18, M 3.63, S 2.39
I12: C 3.22, S 4.98, R 4.25, D 4.39, L 1.72, T 4.42, E 4.84, P 4.53, W 1.12, G 4.63, V 2.91, F 1.61, N 4.46, H 4.28, Q 4.37, K 4.77, A 4.36, M 3.11, Y 2.96
L7: Y 2.34, D 2.71, V 1.45, M 1.73, R 2.65, F 1.79, G 4.11, Q 3.41, K 3.96, S 3.06, A 3.2, H 3.38, W 2.04, P 3.07, T 3, C 3.01, I 2.1, N 3.96, E 4.3
I17: E 3.87, T 3.6, R 3.33, C 2.58, Q 3.47, A 2.41, S 3.74, V 2.39, G 4.14, D 3.99, K 3.65, Y 2.09, L 2.17, P 4.26, M 1.87, N 2.81, F 1.96, H 2.94
V19: E 4.65, S 4.1, N 4.1, I 2.36, F 2.3, W 2.28, M 2.79, L 1.59, Y 2.58, P 4.3, G 4.16, H 3.55, C 1.89, Q 3.76, R 4.23, D 5.01, T 3.95, A 3.81, K 4.5
R15: G 3.14, C 1.54, T 2.56, M 2.24, D 3.17, K 3.1, H 2.77, A 2.55, V 2.65, F 2.31, N 3.66, Q 3.58, W 3.01, S 3.16, Y 2.79, E 3.55, P 3.73
E11: N 3.26, Y 2.88, I 3.16, Q 2.73, C 2.83, G 2.48, H 2.23, D 1.82, K 2.85, M 3.38, F 1.89, S 2.02, R 2.22, T 2.41, P 2.98, A 1.95
A13: F 2.41, R 2.27, G 2.95, Q 3.05, V 2.17, W 1.65, T 2.62, E 2.87, M 1.58, Y 1.53, D 3.9, I 2.22, H 2.5, K 3.05, N 3.2, P 3.53, C 2.31, S 2.57

From the supplement of paper PMC10567573
